PMC4316792, “The dehydrogenase region of the NADPH oxidase component Nox2 acts as a protein disulfide isomerase (PDI) resembling PDIA3 with a role in the binding of the activator protein p67^phox” (Frontiers in Chemistry, 2015)

B1: p67^phox(1–212) [not stated] / Nox2 peptide 24 (357–371) with an intramolecular disulfide bond between C369 and C371 [modified: biotin on the N-terminus; C-terminal amide; intramolecular disulfide bond between C369 and C371; biotin on the … (parent complex)
chain 1: MSLVEAISLWNEGVLAADKKDWKGALDAFSAVQDPHSRICFNIGCMYTILKNMTEAEKAFTRSINRDKHLAVAYFQRGMLYYQTEKYDLAIKDLKEALIQLRGNQLIDYKILGLQFKLFACEVLYNIAFMYAKKEEWKKAEEQLALATSMKSEPRHSKIDKAMECVWKQKLYEPVVIPVGKLFRPNERQVAQLAKKDYLGKATVVASVVDQD
chain 2: SGSGIVGDWTEGLFNACGC

Variants of: B1
Assay: peptide-protein binding assay (surface-attached biotinylated peptide, protein in solution, kinetic TMB oxidation read-out); 10 min kinetic experiment; read off a plot

response | Variant
~12 Absorbance (650 nm) x 1000/min | chain 1 C40S, chain 1 C45S, chain 1 C121S, chain 1 C165S
